# Laboratory results taken from patent US20100151486A1, “OSTEOPONTIN FUNCTIONAL EPITOPES, MONOCLONAL ANTIBODIES AGAINST THE EPITOPES AND USES THEREOF” (SHANGHAI NATIONAL ENGINEERING RESEARCH CENTER OF A, priority 2007, published 2010).
# “Also recorded” adds a separate entry of the source.
# B1: 1A12: murine anti-hOPN mAb; VH SEQ ID NO: 4, VL SEQ ID NO: 6; from hybridoma 1A12 (antibody, V domains shown)
# VH: QVQLEQSGPELVKPGASVKMSCKSSGYTFTTYVMHWVKQKPGQGLEWIGYINPYNDGSKYNEKFKGKATLTSDKSSNTAYMELSSLTSEDSAVYYCASHYGGSPAYWGQGTLVTVSA
# VL: DILMTQTPLSLPVSLGDQASISCRSSQSLVHSNGNTYLHWYLQKPGQSPKLLIYKVSNRFSGVPDRFSGSGSGTDFTLKISRVEAEDLGVYFCSQSTHVPWTFGGGTKLEIKR
# modifications: amino acid sequence of the heavy chain variable region in 1A12; amino acid sequence of the light chain variable region in 1A12
# notes: murine anti-hOPN mAb; from hybridoma 1A12
# Key:
# [1] = biological target: T1, human OPN protein (Homo sapiens, UniProt P10451); experiment: Western blot of 1A12 against human OPN protein; format: binding
# T1 construct: made in house; host or cells: Pichia (yeast), culture supernatant
# T1 sequence (P10451 17-314): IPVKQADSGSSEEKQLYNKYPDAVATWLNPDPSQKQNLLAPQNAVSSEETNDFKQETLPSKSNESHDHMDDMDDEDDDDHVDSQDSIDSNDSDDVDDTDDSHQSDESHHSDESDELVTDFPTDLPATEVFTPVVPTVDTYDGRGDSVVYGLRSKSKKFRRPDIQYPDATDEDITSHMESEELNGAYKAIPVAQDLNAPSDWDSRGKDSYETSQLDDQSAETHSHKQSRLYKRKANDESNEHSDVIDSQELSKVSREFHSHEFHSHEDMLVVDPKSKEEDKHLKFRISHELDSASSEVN
# Description: 100 ug human OPN and an equal volume of Freund's adjuvant were emulsified, and injected intraperitoneally into BALB/C mice. Boost was given every two weeks at the same dose. […] The mouse spleen lymphocytes were fused with NS-1 cells using the classic PEG method. 96-well plate coated with 10 μg/ml human OPN was used for repeated screening by ELISA method to obtain hybridoma cell line 1A12 which was capable of stably expressing anti-human OPN antibody. The strain of 1A12 was amplified, and administrated to BALB/C mice in 5×10^6 cells/mouse (i.p.). The ascites was collected from the 10th day after the injection. The anti-human OPN monoclonal antibody was purified by affinity chromatography using protein A column.
# [2] = system: chicken embryo chorioallantoic membrane (CAM); experiment: Chicken embryo chorioallantoic membrane (CAM) angiogenesis assay; format: in vivo; details: human OPN 250 ng + antibody 1 μg; P<0.01
# Description: The Leghorn chicken embryos were purchased from the farm with a fertilization rate of >90%. The 8-day old chicken embryos were selected. After sterilization, a small hole was drilled in the center of the top air chamber of the embryo with a lancet, the surrounding shell with the inner membrane was removed with caution to create an opening of 1 cm×1 cm. Then the following analytes/gelatin sponge were added to the CAM surface: i) PBS; ii) HOPN; iii) human OPN (250 ng); iv) human OPN (250 ng)+the irrelevant antibody as control (1 μg); v) human OPN (250 ng)+the murine anti-OPN antibody 1A12 (1 μg); vi) human OPN (250 ng)+the murine-human chimeric anti-OPN antibody c1A12 (1 μg); vii) human OPN (250 ng)+the humanized anti-OPN antibody h1A1.2 (1 μg).
# The analytes/gelatin sponge were added to the CAM surface, which was far away from the already-formed dense vascular network. […] The number of vessels within an area edging 2 mm from the edges of the carrier slide was counted under a dissecting microscope to study the angiogenesis using the “vascular index” (Ribatti, D., B. Nico, A. Vacca et al., The gelatin sponge-chorioallantoic membrane assay. Nat Protoc, 2006, 1 (1): 85-91). The number of vessel was counted at the same magnification under the dissecting microscope. The result in each sample group was expressed as “mean±standard deviation (x±S)”. […]
# [3] = system: HUVECs; experiment: Formation of capillary-like structure in HUVECs on matrigel; format: cell-based, human
# Description: HUVECs were cultured in the M200 medium containing LCGS to 80% confluence. The matrigel stored at −20° C. was took out the day before experiment and naturally thawed at 4° C. for 3 to 12 hours. To each well of a 96-welt plate was added […] using a pre-cooled pipet with carefully removing the bubbles, wherein the whole procedure was carried on ice. The loaded plate was incubated at 37° C. for 1 hour to gel the matrigel. To each well, 100 μl HUVECs (2×10^4/well) was gently added onto the surface of matrigel. To the treatment groups were further added the anti-hOPN antibodies 1A12, c1A12 and h1A12. The plate was incubated at 37° C. for […], and the formation of the capillary-like structure was observed 6 hours after.
# [4] = system: MDA-MB-435s cells; experiment: Clone formation on soft agar assay; format: cell-based; details: antibody 25 μg/ml every other day; 3 weeks
# Description: The assay of clone formation on soft agar was conducted using a double-layer soft agar system. 2.5% melted agar was mixed the DMEM medium pre-warmed at 37° C. to formulate a 0.5% agar solution, which was then diluted with DMEM to a 0.3% agar solution. To each well of a 24-well plate was added 500 μl of a 0.5% agar solution, which was allowed to gel at 4° C., and then kept warm in an incubator at 37°C. The MDA-MB-435s cells were detached using 0.2% .EDTA and suspended in the 0.3% agar solution at the concentration of 5×10^3 cells/ml. 500 μl of the cell suspension was added each well and left to gel. From the second day, the cells were respectively treated with 1A12, c1A12, h1A12 or the irrelevant antibody (23C3D3) (25 μg/ml) every other day. After 3 weeks, the colony formation ability was evaluated by measuring the size of colonies containing more than 10 cells.
# [5] = system: MDA-MB-435s cells; experiment: Spontaneous lung metastasis in nude mice (MDA-MB-435s); format: in vivo; details: 5 mg/kg, 2 times per week; histological sections
# Description: The MDA-MB-435s cells were detached and re-suspended in serum-free DMEM to the concentration of 5×10^7 cells/ml. Each group of 10 female 4 to 6-week old nude mice were anaesthetized by injection of sodium pentobarbital (ip.). Under sterile condition, the skin was sterilized, and a small incision (0.5-mm) was made in the skin over the lateral thorax below the right limb. The mammary fat pads (mfp) were exposed and MDA-MB-435s cells (5×10^6 in 100 μl DMEM) were orthotopically injected into the mfps. The cut was then closed. The animals were randomly divided into four groups, and each accepted the treatment as specified below from the day after the tumor cell inoculation:
# 1A12: 5 mg/kg, 2 times per week;
# Control antibody: 5 mg/kg, 2 times per week.
# The tumor formation in nude mice was observed once a week, the maxima of the diameter (length) and a perpendicular dimension of the tumor (width) were measured using a caliper, and the volume was calculated as follows: Volume=0.52×length×width^2. The changed tumor volumes were plotted versus the time into a tumor growth curve.
# The mice were sacrificed by cervical dislocation at the end of the 10th week after inoculation. For each group, tumor tissues were isolated, fixed with 10% neutral formalin and embedded in paraffin, and the tumor tissue and lung tissue were stained with H & E for analysis. […]
# [6] = system: human vascular endothelial cell (HUVEC); experiment: HUVEC proliferation by 3H-TdR incorporation; format: cell-based; details: M200+1% BSA+OPN+antibody; 24 hours
# Description: HUVEC cell proliferation was measured by the ^3H-TdR incorporation method to determine the protective effect of OPN on cell survival and the inhibitory effect of the anti-OPN antibodies on the OPN protection. Each well of a 96-well plate was inoculated with 2×10^4 HUVECs and cultured in a complete medium for 24 hours. The cells were then treated as following for 24 hours: […]
# iv. M200+1% BSA+OPN+murine anti-OPN antibody 1A12 v. M200+1% , BSA+OPN+human-murine chimeric anti-OPN antibody c1A12 vi. M200+1% BSA+OPN+humanized anti-OPN antibody h1A12 vii. M200+1% BSA+OPN+irrelevant antibody
# 24 hours later, 1 uCi/well ^3H-thymidine was added and, after being incubated at 37° C. for 6 hours, washed once with PBS. The plate was treated with ice-cold 10% trichloroacetic acid/H2O at 4° C. for 10 min, and then washed for two times with, ice-cold ddH2O. Cytolysis was conducted by adding into each well 0.1 ml of 0.5 N NaOH, 0.5% SDS at room temperature for 10 min. After adding 0.2 ml of 0.5 N HCl and mixing, the cells were collected using a multiple cell collector.
molecule,measurement,setting,value
B1,binding to the human OPN protein,[1],specifically bound
same,inhibition of OPN-induced angiogenesis in CAM,[2],significantly inhibit
same,potency of forming the capillary-like structure in HUVECs,[3],reduce
same,inhibition of clone size formed by MDA-MB-435s cells on soft agar,[4],could inhibit the clone size
same,number of the metastasis in lung,[5],reduced; also recorded: block tumor metastasis
same,size of the metastasis in lung,[5],reduced
same,3H-TdR incorporation relative to the OPN group,[6],significantly lower
